The target of this assay is human DPP6 protein (as used in the affinity analysis) (human, UniProt P42658 117-865, limits assumed). As to the kind of experiment: affinity analysis versus human DPP6 protein; method not stated.
human DPP6 protein (as used in the affinity analysis), sequence (P42658 117-865 limits assumed): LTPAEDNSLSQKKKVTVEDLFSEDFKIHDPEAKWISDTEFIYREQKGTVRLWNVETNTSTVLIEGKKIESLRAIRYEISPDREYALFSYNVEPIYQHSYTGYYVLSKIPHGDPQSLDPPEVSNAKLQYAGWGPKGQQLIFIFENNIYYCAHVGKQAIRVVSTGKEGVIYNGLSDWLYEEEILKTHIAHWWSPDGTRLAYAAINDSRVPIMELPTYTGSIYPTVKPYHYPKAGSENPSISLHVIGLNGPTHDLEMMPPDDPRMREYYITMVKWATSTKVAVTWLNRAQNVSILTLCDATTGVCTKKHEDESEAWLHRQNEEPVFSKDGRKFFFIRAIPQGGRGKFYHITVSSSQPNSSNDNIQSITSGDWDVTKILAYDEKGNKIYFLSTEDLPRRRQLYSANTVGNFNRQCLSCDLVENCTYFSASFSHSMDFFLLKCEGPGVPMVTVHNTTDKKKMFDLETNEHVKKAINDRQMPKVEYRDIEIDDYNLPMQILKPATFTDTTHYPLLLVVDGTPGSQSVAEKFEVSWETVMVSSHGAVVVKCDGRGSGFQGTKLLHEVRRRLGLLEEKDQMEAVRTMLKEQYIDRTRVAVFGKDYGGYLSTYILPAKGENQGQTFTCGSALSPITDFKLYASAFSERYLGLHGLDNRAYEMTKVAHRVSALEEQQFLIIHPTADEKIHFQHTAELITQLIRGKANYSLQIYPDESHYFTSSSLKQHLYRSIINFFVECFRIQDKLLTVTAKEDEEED

B1: nanobody 4hD29 (VHH)
VHH: QVQLQESGGGLVQPGGSLRLSCAASGFTFSSNYMTWVRQAPGKGPEWVSGINPDGSSTYYADSVKGRFTISRDNAKNTLYLQMNSLKSEDTALYKCATGAAPRIPTTLRGQGTQVTVSS
notes: Dromedary nanobody from an immune phage display library; also called Nb 4hD29; 4hD29 Nb
Usually Kd stands for the free concentration of one partner at which half of the binding sites on the other are occupied at equilibrium, for simple one-to-one binding. A lower Kd goes with a tighter complex. Turning to B1, the Kd came out at 1.2 nM.

Source of the values: patent EP3446126B1 (Université Libre de Bruxelles, dated 2024).
